According to patent publication US20250320480A1, “Immunoglobulin Cleaving Enzyme” (priority 2021, published 2025):
Entries after “also recorded” stand apart in the source; their conditions may differ.

How the values were obtained:
human IgG = experiment: Immunoglobulin specificity on SDS-PAGE: human IgG and IgG Fc fusion proteins; format: biochemical; conditions: for Hydrolysis of human IgG and IgG Fc fusion proteins: incubated with different antibodies at 37° C., SDS-PAGE
Method: (§1) FIG. 3. Specificity of IdeSork2.0. IdeSork2.0 was mixed with different antibodies and incubated o/n at 37° C. before analysis on SDS-PAGE. The enzyme itself is noted with an arrow. […] Mouse IgG1, mouse IgG2b and human IgA were not affected by IdeSork2.0.
(§2) Various antibodies and antibody based therapeutics were incubated with Xork, IdeS, or IdeZ (1:40 ratio) for 1 hour at 37° C. in PBS, with substrate concentrations ranging between 2-5 mg/mL, before being analyzed on SDS-PAGE. For kinetic studies, a substrate level of 2-200 μM IVIG was used during 10 min at 37° C. before being analyzed on a UHPLC system.

human IgA = experiment: Immunoglobulin specificity on SDS-PAGE: human IgA; format: biochemical; conditions: 37° C.
Method: as §1, §2

mouse IgG2a = mouse IgG2a (Mus musculus, UniProt P01863); experiment: Immunoglobulin specificity on SDS-PAGE: mouse IgG2a; format: biochemical; conditions: 37° C.
Method: as §1, §2

mouse IgG1 = mouse IgG1 (Mus musculus, UniProt P01868); experiment: Immunoglobulin specificity on SDS-PAGE: mouse IgG1; format: biochemical; conditions: 37° C., listed as IdeSork2.0
Method: as §1, §2

mouse IgG2b = mouse IgG2b (Mus musculus, UniProt P01867); experiment: Immunoglobulin specificity on SDS-PAGE: mouse IgG2b; format: biochemical; conditions: 37° C., listed as IdeSork2.0
Method: as §1, §2

horse IgG = experiment: Immunoglobulin specificity on SDS-PAGE: horse IgG; format: biochemical; conditions: o/n at 37° C.
Method: (§3) FIG. 11. Specificity of IdeSork2.0. IdeSork2.0 was mixed with different antibodies and incubated o/n at 37° C. before analysis on SDS-PAGE.
as §2

guinea pig IgG = experiment: Immunoglobulin specificity on SDS-PAGE: guinea pig IgG; format: biochemical; conditions: o/n at 37° C.
Method: as §3, §2

sheep IgG = experiment: Immunoglobulin specificity on SDS-PAGE: sheep IgG; format: biochemical; conditions: o/n at 37° C.
Method: as §3, §2

dog IgG = experiment: Immunoglobulin specificity on SDS-PAGE: dog IgG; format: biochemical; conditions: o/n at 37° C.
Method: as §3, §2

rat IgG = experiment: Immunoglobulin specificity on SDS-PAGE: rat IgG; format: biochemical; conditions: o/n at 37° C.
Method: as §3, §2

cow IgG = experiment: Immunoglobulin specificity on SDS-PAGE: cow IgG; format: biochemical
Method: as §2

[1] = system: denatured and reduced IgG; experiment: Activity on denatured and reduced IgG; format: biochemical; conditions: urea-denatured and reduced IgG, E:S 1:10, 5 hours at 37° C.
Method: FIG. 17. Denatured IgG was incubated with IgG hydrolases to investigate the necessity of a conserved 3D structure of the substrate for the enzymes to exert their function.
IgG that had been urea-denatured and reduced was incubated with IgG-specific enzymes at an E: S ratio of 1:10, incubating for 5 hours at 37° C. before analysis on SDS-PAGE.

Trastuzumab = experiment: Mechanism of action: time course on Trastuzumab, non-reduced SDS-PAGE; format: biochemical, human; conditions: 1:20, 0-60 minutes
Method: FIG. 6. IdeSork2.0 is acting upon IgG in a two-step mechanism. To investigate if IdeSork2.0 is hydrolyzing both heavy chains of IgG simultaneously, or acting on them individually, we incubated Trastuzumab with IdeSork2.0 (1:20) and incubated for 0-60 minutes before analyzing on a non-reduced SDS-PAGE.
IdeS is known to first hydrolyze one chain of the antibody, and upon hydrolysis thereof, have lower affinity to the second chain. As such many antibodies may be only partly hydrolyzed at the start of the reaction. IdeSORK2.0 also generates fragments with single chain cleavage, however a large proportion of these are quickly processed to full cleavage (FIG. 6).

IgG = experiment: Time-dose assays (enzyme:substrate ratio, time); format: biochemical
Method: FIG. 8. IdeSork2.0 enzyme: substrate ratio. The impact of enzyme and substrate concentration for the reaction speed was investigated using a Box-Behnken experimental setting, also analyzing the impact of time for the reaction speed. Output was measured as percentage hydrolysis of IgG (top left figure), as well as quantity hydrolyzed IgG per unit enzyme (all other figures).
FIG. 9. IdeSork2.0 enzyme: substrate activity over time. To verify the impact of modifying the enzyme: substrate ratio, an experiment with varying amounts of substrate (5-40 μg) to a set amount of enzyme (1 μg) was conducted over time (30, 60, and 120 min).
To investigate the impact of substrate and enzyme concentration, as well as time needed to complete (>95% hydrolysis) a reaction, a new Box-Behnken assay was designed (FIG. 8). The data was supported by traditional assays, with similar results (FIG. 9). IdeSORK2.0 quite rapidly hydrolyzes the vast majority of the material, but needs a longer time to finish hydrolysis of the last percentages of intact IgG, similar to other immunoglobulin proteases. A ratio of 1:40 hydrolyzes >95% of IgG in 30-60 minutes.
To better understand the optimal conditions needed for the enzyme to exert its activity, a Box-Behnken design was employed for the experiment. Addition of NaCl (0-400 mM), pH (5.5-8.5), [enzyme], [substrate], time, and temperature were parameters investigated. […]

IgG1 = experiment: Comparison to other IgG proteases: IgG1; format: biochemical; conditions: SDS-PAGE
Method: (§4) FIG. 10. IdeSork2.0 is having a similar activity compared to IdeS and IdeZ. To investigate if IdeSork2.0 is hydrolyzing IgG in a similar way as IdeS and IdeZ they were all incubated against IgG1 and IgG2 and analyzed on SDS-PAGE. The cleavage patterns look identical, with both IdeSork2.0 and IdeS having less activity towards IgG2.
(§5) To further look into the activity of IdeSORK2.0, its activity was compared with IdeS and IdeZ against both IgG1 and IgG2.

IgG2 = experiment: Comparison to other IgG proteases: IgG2; format: biochemical; conditions: SDS-PAGE
Method: as §4, §5

Sequence of mouse IgG2a (P01863 whole entry): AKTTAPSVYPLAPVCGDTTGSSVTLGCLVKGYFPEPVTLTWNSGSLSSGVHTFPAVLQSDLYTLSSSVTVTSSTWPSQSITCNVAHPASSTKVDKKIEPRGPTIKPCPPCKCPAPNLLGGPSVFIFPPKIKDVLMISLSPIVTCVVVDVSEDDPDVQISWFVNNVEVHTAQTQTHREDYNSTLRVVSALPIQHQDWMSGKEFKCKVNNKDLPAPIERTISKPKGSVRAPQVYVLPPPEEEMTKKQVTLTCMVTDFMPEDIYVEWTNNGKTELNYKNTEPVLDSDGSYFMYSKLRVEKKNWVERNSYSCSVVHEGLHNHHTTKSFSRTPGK
Sequence of mouse IgG2b (P01867 1-335 isoform P01867-2): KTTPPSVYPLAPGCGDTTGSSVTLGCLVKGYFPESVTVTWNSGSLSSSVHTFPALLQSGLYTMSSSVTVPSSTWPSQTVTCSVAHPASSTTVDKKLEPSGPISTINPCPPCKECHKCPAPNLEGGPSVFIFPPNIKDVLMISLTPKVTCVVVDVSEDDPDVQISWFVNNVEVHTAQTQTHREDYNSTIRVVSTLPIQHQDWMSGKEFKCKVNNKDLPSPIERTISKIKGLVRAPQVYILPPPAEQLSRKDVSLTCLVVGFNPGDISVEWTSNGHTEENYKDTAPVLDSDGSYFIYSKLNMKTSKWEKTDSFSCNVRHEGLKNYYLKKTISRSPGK

B1: IdeSORK2.0: SEQ ID NO: 2 (N terminal 312 amino acids of IdeSORK) with added N terminal methionine and C-terminal His6; 319 amino acids (protein)
chain: MSKRKLLKKIEKKDTSSVLTQKKQTKTLWADGVQVDDKDFKPSTENFGTNYLAAEYGIGKGYYDINKKFDGTDDDLCSGVVAANQLHWWLDRNKDYIEKYRQQSKDNGVTIGNTDIFELNKLHDEDQSNFFDFIKKSFGNKFLQPERLLNMYINGYGYLTSQDKAKTSQPSPSKLNFFQKVFKNNLLTDKTPINDIDEFSSQTKNALQNHKVLAVSFASIKNRGLGHVVTVWGADFDENGKVVALYVTDSDDRSKNIGNAKLGMKKLRIEVSAQDSSTIKLTGFEDKNSGGSLRHLYSLSTGEQIWKKYFEETHHHHHH
modifications: (IdeSORK2.0) Protein of SEQ ID NO 2 engineered to include an additional N terminal methionine and a C-terminal protein purification tag - His6
In the case of B1, the “Hydrolysis of monoclonal IgG4” value (human IgG) is reported as “can also hydrolyze”, the “Hydrolysis of polyclonal IgG (e.g. IVIG)” value (human IgG) is reported as “near complete hydrolysis” and the “Preference between human IgG subclasses” value (human IgG; IgG1 versus IgG2) is reported as “slight preference for IgG1 over IgG2”. For the same molecule, the “Effect of alterations of the hinge region (e.g. LALA-sequence) on activity” value (human IgG; human antibodies with altered hinge) was “did not affect the activity”, the “Hydrolysis of human IgG and IgG Fc fusion proteins” value (human IgG) was “hydrolyzing all tested human IgGs and IgG Fc fusion proteins” and the “Hydrolysis of human IgG and IgG Fc fusion proteins” value (human IgG; listed as IdeSork2.0) was “hydrolyzed”. The “Activity towards human IgA” value (human IgA) was “not active”, the “Activity towards human IgA” value (human IgA; listed as IdeSork2.0) was “not affected” and the “Activity towards mouse IgG2a” value (mouse IgG2a) was “active”. For the same molecule, the “Activity towards mouse IgG2a” value (mouse IgG2a; listed as IdeSork2.0) was “could be hydrolyzed”, the “Activity towards mouse IgG1” value (mouse IgG1) was “not affected” and the “Activity towards mouse IgG2b” value (mouse IgG2b) was “not affected”. The “Activity on horse IgG” value (horse IgG) was “showed activity”, the “Activity on guinea pig IgG” value (guinea pig IgG) was “showed activity” and the “Activity on sheep IgG” value (sheep IgG) was “only showed activity against horse and guinea pig IgG; also recorded: no visible effect”. For the same molecule, the “Activity on dog IgG” value (dog IgG) was “only showed activity against horse and guinea pig IgG; also recorded: no visible effect”, the “Activity on rat IgG” value (rat IgG) was “only showed activity against horse and guinea pig IgG; also recorded: no visible effect” and the “Activity on cow IgG” value (cow IgG) was “only showed activity against horse and guinea pig IgG”. For the same molecule, the “Activity against denatured and reduced IgG” value [1] was “not active”, the “Mechanism of IgG heavy chain hydrolysis” value (Trastuzumab) was “activity is mediated one chain at a time” and the “Time course of IgG hydrolysis” value (Trastuzumab) was “Most IgG is hydrolyzed within the first few minutes”. The “Mechanism of IgG heavy chain hydrolysis” value (Trastuzumab; listed as IdeSork2.0) was “two-step reaction”, the “Hydrolysis of IgG over time at varying substrate amounts” value (IgG; 5-40 μg substrate to 1 μg enzyme, 30, 60 and 120 min) was “Almost all IgG is hydrolyzed within 30 minutes” and the “Hydrolysis of IgG” value (IgG; ratio 1:40, 30-60 minutes) was > 95%. The “Hydrolysis of IgG1” value (IgG1) was “able to hydrolyze”, the “Hydrolysis of IgG2” value (IgG2) was “able to hydrolyze” and the “Hydrolysis of IgG2” value (IgG2; listed as IdeSork2.0) was “less activity”.
